Tests used:
[1] = target: T1, mfNPR1-mFc:hANP complex (monkey; human, UniProt P01160 124-151); experiment: SPR, mAb captured, 37C
T1 construct: also called monkey NPR1 complexed to ANP
Method: (§1) Equilibrium dissociation constant (KD) for different NPR1 reagents binding to purified anti-NPR1 monoclonal antibodies (mAbs) were determined using a real-time surface plasmon resonance based Biacore 4000 biosensor. All binding studies were performed in 10 mM HEPES, 150 mM NaCl, 3 mM EDTA, and 0.05% v/v Surfactant Tween-20, pH 7.4 (HBS-ET) running buffer at 25° C. and 37° C. The Biacore CM5 sensor chip surface was first derivatized by amine coupling with either mouse anti-human Fc specific mAb (GE Healthcare, #BR100839) or goat anti-human Fcy specific polyclonal antibody (Jackson ImmunoResearch Laboratories, #BR-1008-39) to capture anti-NPR1 mAbs.

[2] = target: T2, hNPR1-mFc:hBNP complex (human, UniProt P16860 103-134); experiment: SPR, mAb captured, 37C
T2 construct: also called human NPR1 complexed to BNP
Method: as §1

[3] = target: T3, mfNPR1-mFc (monkey); experiment: SPR, mAb captured, 37C
T3 construct: also called dimeric monkey NPR1
T3 chain: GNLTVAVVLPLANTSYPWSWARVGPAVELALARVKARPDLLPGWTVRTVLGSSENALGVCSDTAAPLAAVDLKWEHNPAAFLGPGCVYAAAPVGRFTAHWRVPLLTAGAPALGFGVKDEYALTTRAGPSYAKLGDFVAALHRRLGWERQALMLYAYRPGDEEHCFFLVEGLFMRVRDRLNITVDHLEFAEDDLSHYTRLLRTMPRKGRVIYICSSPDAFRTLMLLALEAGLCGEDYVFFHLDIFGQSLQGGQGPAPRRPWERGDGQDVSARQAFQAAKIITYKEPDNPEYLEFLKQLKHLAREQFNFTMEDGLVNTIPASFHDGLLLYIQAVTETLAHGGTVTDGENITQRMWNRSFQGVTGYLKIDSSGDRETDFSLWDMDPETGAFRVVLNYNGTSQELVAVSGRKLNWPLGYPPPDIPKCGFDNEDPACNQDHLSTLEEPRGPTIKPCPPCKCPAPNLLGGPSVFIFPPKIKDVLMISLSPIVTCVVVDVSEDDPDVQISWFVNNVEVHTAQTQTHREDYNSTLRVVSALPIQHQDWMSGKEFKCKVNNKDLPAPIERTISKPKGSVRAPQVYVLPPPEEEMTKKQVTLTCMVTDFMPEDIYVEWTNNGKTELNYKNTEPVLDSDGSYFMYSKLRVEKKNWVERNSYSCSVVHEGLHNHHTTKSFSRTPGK
Method: as §1

[4] = target: T4, hNPR1-mFc:hANP or hNPR1-hFc:hANP complex (human, UniProt P01160 124-151); experiment: SPR, mAb captured, 37C
T4 construct: also called human NPR1 complexed to ANP
Method: as §1

[5] = target: T1, mfNPR1-mFc:hANP complex; experiment: SPR, mAb captured, 25C
Method: as §1

[6] = target: T2, hNPR1-mFc:hBNP complex; experiment: SPR, mAb captured, 25C
Method: as §1

[7] = target: T5, mfNPR1-mFc:hBNP complex (monkey; human, UniProt P16860 103-134); experiment: SPR, mAb captured, 25C
T5 construct: also called monkey NPR1 complexed to BNP
Method: as §1

[8] = target: T3, mfNPR1-mFc; experiment: SPR, mAb captured, 25C
Method: as §1

[9] = target: T4, hNPR1-mFc:hANP or hNPR1-hFc:hANP complex; experiment: SPR, mAb captured, 25C
Method: as §1

B1: mAb25508 (antibody, human IgG4, V domains shown)
VH: EVQLVESGGGVVRPGGSLRLSCAASGFNVDDYGMSWVRQIPGKGLEWISGINWNGGRIYYADSMKGRITISRDNAKNSLYLQMNSLRAEDTALYHCVRDQWLVRGLDYWGQGTLVTVSS
VL: DIQMTQSPSSLSASVGDRVTITCRASQGIYNYLAWFQQKPGKAPKSLIYAASSLQSGVPSKFSGSGSGTDFTLTISSLQPEDFATYYCQQYNTYPYTFGQGTKLEIK
In the case of B1, the “100 nM Ag Bound (RU)” value [1] is reported as 262 RU, the Kd [1] is reported as 0.355 nM and the koff [1] is reported as 0.000146 s⁻¹. For the same binder, the kon [1] was 411000 M⁻¹ s⁻¹, the t½ [1] was 79.3 min and the “100 nM Ag Bound (RU)” value [2] was 236 RU. It also gave a Kd [2] of 0.466 nM, a koff [2] of 0.000164 s⁻¹ and a kon [2] of 352000 M⁻¹ s⁻¹. For the same binder, the t½ [2] was 70.3 min, the “100 nM Ag Bound (RU)” value [3] was 268 RU and the Kd [3] was 0.132 nM. For the same binder, the koff [3] was 8.36e-05 s⁻¹, the kon [3] was 634000 M⁻¹ s⁻¹ and the t½ [3] was 138 min. The “100 nM Ag Bound (RU)” value [4] was 230 RU, the Kd [4] was 0.506 nM and the koff [4] was 0.000148 s⁻¹. The kon [4] was 293000 M⁻¹ s⁻¹, the t½ [4] was 77.9 min and the “100 nM Ag Bound (RU)” value [5] was 224 RU. For the same binder, the Kd [5] was 0.233 nM, the koff [5] was 7.32e-05 s⁻¹ and the kon [5] was 314000 M⁻¹ s⁻¹. The t½ [5] was 158 min, the “100 nM Ag Bound (RU)” value [6] was 200 RU and the Kd [6] was 0.343 nM. The koff [6] was 8.57e-05 s⁻¹, the kon [6] was 250000 M⁻¹ s⁻¹ and the t½ [6] was 135 min. For the same binder, the “100 nM Ag Bound (RU)” value [7] was 229 RU, the Kd [7] was 0.29 nM and the koff [7] was 8.91e-05 s⁻¹. For the same binder, the kon [7] was 308000 M⁻¹ s⁻¹, the t½ [7] was 130 min and the “100 nM Ag Bound (RU)” value [8] was 230 RU. For the same binder, the Kd [8] was 0.116 nM, the koff [8] was 5.98e-05 s⁻¹ and the kon [8] was 515000 M⁻¹ s⁻¹. The t½ [8] was 193 min, the “100 nM Ag Bound (RU)” value [9] was 199 RU and the Kd [9] was 0.34 nM. It also gave a koff [9] of 8.97e-05 s⁻¹, a kon [9] of 264000 M⁻¹ s⁻¹ and a t½ [9] of 129 min.

B2: mAb25498 (antibody, human IgG4, V domains shown)
VH: QVQLVESGGGVVQPGRSLRLSCVASGFTFSSYGMVWVRQTPGKGLEWVAVIWHDGTNNYYADSVKGRFTISRDNSKNTLYLQMNSLRAEDTAVYYCAREPWLVRGYYYYAMDVWGQGTTVTVSS
VL: not shown
With B2 the “100 nM Ag Bound (RU)” value [1] was 114 RU, the Kd [1] was 8.89 nM and the koff [1] was 0.000445 s⁻¹. The kon [1] was 50100 M⁻¹ s⁻¹, the t½ [1] was 25.9 min and the “100 nM Ag Bound (RU)” value [2] was 76 RU. The Kd [2] was 17.9 nM, the koff [2] was 0.000948 s⁻¹ and the kon [2] was 52900 M⁻¹ s⁻¹. The t½ [2] was 12.2 min, the “100 nM Ag Bound (RU)” value [3] was 170 RU and the Kd [3] was 4.06 nM. It also gave a koff [3] of 0.000372 s⁻¹, a kon [3] of 91600 M⁻¹ s⁻¹ and a t½ [3] of 31.1 min. For the same binder, the “100 nM Ag Bound (RU)” value [4] was 74 RU, the Kd [4] was 13.6 nM and the koff [4] was 0.00072 s⁻¹. For the same binder, the kon [4] was 53000 M⁻¹ s⁻¹, the t½ [4] was 16 min and the “100 nM Ag Bound (RU)” value [5] was 81 RU. It also gave a Kd [5] of 2.68 nM, a koff [5] of 0.000112 s⁻¹ and a kon [5] of 41900 M⁻¹ s⁻¹. The t½ [5] was 103 min, the “100 nM Ag Bound (RU)” value [6] was 55 RU and the Kd [6] was 5.28 nM. For the same binder, the koff [6] was 0.000256 s⁻¹, the kon [6] was 48500 M⁻¹ s⁻¹ and the t½ [6] was 45.1 min. For the same binder, the “100 nM Ag Bound (RU)” value [7] was 81 RU, the Kd [7] was 2.53 nM and the koff [7] was 0.000109 s⁻¹. For the same binder, the kon [7] was 43200 M⁻¹ s⁻¹, the t½ [7] was 106 min and the “100 nM Ag Bound (RU)” value [8] was 128 RU. The Kd [8] was 2.45 nM, the koff [8] was 0.000177 s⁻¹ and the kon [8] was 72000 M⁻¹ s⁻¹. The t½ [8] was 65.4 min, the “100 nM Ag Bound (RU)” value [9] was 52 RU and the Kd [9] was 6.93 nM. It also gave a koff [9] of 0.000317 s⁻¹, a kon [9] of 45800 M⁻¹ s⁻¹ and a t½ [9] of 36.4 min.

B3: mAb25497 (antibody, human IgG4, V domains shown)
VH: QVQLVQSGAEVKEPGASVKVSCKASGYTFTDYYIHWVRQAPGQGLEWMGWINLNSGGKNHAQKFQGRVTVTSDTSINTAYIELGRLRGDDTAVYYCSRGGGSHYYYYYHGMDVWGQGTTVTVSS
VL: DIQMTQSPSSLSASVGDRITITCRASHSIDSYLNWYQQKPGKAPKLLIYPASTLQSGVPSRFSGSGSGTDFTLTISSLQPEDSAIYYCQQSYSTPLTFGGGTKVEIK
In the case of B3, the “100 nM Ag Bound (RU)” value [1] is reported as 102 RU, the Kd [1] is reported as 2.6 nM and the koff [1] is reported as 0.000152 s⁻¹. For the same binder, the kon [1] was 58400 M⁻¹ s⁻¹, the t½ [1] was 75.9 min and the “100 nM Ag Bound (RU)” value [2] was 59 RU. The Kd [2] was 2.35 nM, the koff [2] was 0.000116 s⁻¹ and the kon [2] was 49200 M⁻¹ s⁻¹. The t½ [2] was 99.7 min, the “100 nM Ag Bound (RU)” value [3] was 79 RU and the Kd [3] was 5.2 nM. For the same binder, the koff [3] was 0.000221 s⁻¹, the kon [3] was 42500 M⁻¹ s⁻¹ and the t½ [3] was 52.3 min. The “100 nM Ag Bound (RU)” value [4] was 60 RU, the Kd [4] was 2.09 nM and the koff [4] was 0.000102 s⁻¹. The kon [4] was 48500 M⁻¹ s⁻¹, the t½ [4] was 114 min and the “100 nM Ag Bound (RU)” value [5] was 95 RU. The Kd [5] was 0.24 nM, the koff [5] was 3.75e-05 s⁻¹ and the kon [5] was 156000 M⁻¹ s⁻¹. The t½ [5] was 308 min, the “100 nM Ag Bound (RU)” value [6] was 59 RU and the Kd [6] was 0.358 nM. It also gave a koff [6] of 5.49e-05 s⁻¹, a kon [6] of 153000 M⁻¹ s⁻¹ and a t½ [6] of 210 min. The “100 nM Ag Bound (RU)” value [7] was 93 RU, the Kd [7] was 0.32 nM and the koff [7] was 4.47e-05 s⁻¹. The kon [7] was 140000 M⁻¹ s⁻¹, the t½ [7] was 258 min and the “100 nM Ag Bound (RU)” value [8] was 76 RU. For the same binder, the Kd [8] was 0.337 nM, the koff [8] was 5.79e-05 s⁻¹ and the kon [8] was 172000 M⁻¹ s⁻¹. The t½ [8] was 199 min, the “100 nM Ag Bound (RU)” value [9] was 59 RU and the Kd [9] was 0.279 nM. The koff [9] was 4.56e-05 s⁻¹, the kon [9] was 163000 M⁻¹ s⁻¹ and the t½ [9] was 253 min.

Reference: patent US20240309103A1 (Regeneron, published 2024)
